Reference: patent US20260242478A1 (published 2026)
Where no end group is shown, it is not given here.

B1: Phage-2279 (peptide)
peptide: IPRMCTPAWMCEWS
B2: Phage-2269 (peptide)
peptide: FAKWCTPQWMCSAM
B3: Phage-2281 (peptide)
peptide: MPKWCIPTWMCEST
B4: Phage-2271 (peptide)
peptide: HQNWCIPAWMCHGM
B5: Phage-2270 (peptide)
peptide: VVKWCSPPWMCEYF
B6: Phage-2275 (peptide)
peptide: GEKWCIPSWMCEIT
B7: Phage-2273 (peptide)
peptide: GINWCIPPWMCQSE
B8: Phage-2272 (peptide)
peptide: WDMRCTPIWMCEGF
B9: Phage-2280 (peptide)
peptide: FAILCKPMWMCEHI
B10: Phage-2282 (peptide)
peptide: AVKLCTPMWMCMGF
B11: Phage-2278 (peptide)
peptide: IEKWCIPQWMCSAA
B12: Phage-2276 (peptide)
peptide: LEKWCTPPWMCMGF
B13: Phage-2268 (peptide)
peptide: AENWCRPSWMCEGF
B14: Phage-2277 (peptide)
peptide: IIKWCKPLWMCESI
B15: Phage-2274 (peptide)
peptide: YTNWCIPSWMCEGF
B16: Phage-2191 (peptide)
peptide: VDNWCVPRWMCDGF
notes: tested as crude clonal phage supernatant
B17: Phage-2185 (peptide)
peptide: WSKSCTPAWMCEGF
notes: as for B16
B18: Phage-2186 (peptide)
peptide: EFKWCIPAWMCTAA
notes: as for B16
B19: Phage-2180 (peptide)
peptide: LIKWCTPPWMCEQL
notes: as for B16
B20: Phage-2190 (peptide)
peptide: EHHWCIPKWMCNEV
notes: as for B16
B21: Phage-2183 (peptide)
peptide: VHMRCIPEWMCQVF
notes: as for B16
B22: Phage-2181 (peptide)
peptide: LDKLCIPSWMCWSH
notes: as for B16
B23: Phage-2177 (peptide)
peptide: SLHLCIPQWMCGIS
modifications: cysteine pairing not given here; also: displayed on bacteriophage as fusion to pIII
notes: as for B16
B24: Phage-2189 (peptide)
peptide: WYKWCTPAWMCEFT
notes: as for B16
B25: Phage-2179 (peptide)
peptide: EPKLCRPAWMCVGM
notes: as for B16
B26: Phage-2178 (peptide)
peptide: ITKWCTPAWMCAHL
modifications: cysteine pairing not given here; also: displayed on bacteriophage as fusion to pIII
notes: as for B16
B27: Phage-2182 (peptide)
peptide: HEKLCIPWWMCEDH
notes: as for B16
B28: Phage-2184 (peptide)
peptide: TEKWCIPEWMCAHQ
modifications: cysteine pairing not given here; also: displayed on bacteriophage as fusion to pIII
notes: as for B16
B29: Phage-2188 (peptide)
peptide: LSHWCSPQWMCSGF
notes: as for B16
B30: Phage-2187 (peptide)
peptide: EIKWCTPAWMCEGF
notes: as for B16
B31: Phage-2261 (peptide)
peptide: TEKWCIPAWMCQVS
B32: Phage-2263 (peptide)
peptide: YSHLCIPSWMCSWT
B33: Phage-2256 (peptide)
peptide: PVNWCKPPWMCEMW
B34: Phage-2267 (peptide)
peptide: ITKLCTPPWMCTMV
B35: Phage-2259 (peptide)
peptide: DMRWCIPAWMCEDR
B36: Phage-2258 (peptide)
peptide: MMKWCTPEWMCAMV
modifications: cysteine pairing not given here; also: displayed on phage, fused to pIII
B37: Phage-2257 (peptide)
peptide: MEMWCRPAWMCAHS
modifications: cysteine pairing not given here; also: displayed on phage, fused to pIII
B38: Phage-2265 (peptide)
peptide: GDRWCIPEWMCGVI
B39: Phage-2262 (peptide)
peptide: PNIWCTPLWMCEGL
B40: Phage-2264 (peptide)
peptide: ALKWCIPDWMCSQP
B41: Phage-2266 (peptide)
peptide: EMHWCIPAWMCPDG
B42: Phage-2260 (peptide)
peptide: VDRWCIPEWMCNEL
B43: Phage-2255 (peptide)
peptide: VELLCKPPWMCSGL
B44: Phage-2253 (peptide)
peptide: NERWCIPSWMCQEA
B45: Phage-2254 (peptide)
peptide: PAKWCIPMWMCQVD

What follows are binders tested against T1, Anti-PSMA Fab (SEQ ID NOs: 19, 20) (assay: phage binding ELISA; Fab-coated wells pre-incubated with PSMA antigen as competitor).
T1 construct: Biotinylated and captured on neutravidin coated plates in the phage ELISA; also called 006 PSMA Fab
Protocol: (§1) Clonal phage were harvested as crude supernatants and screened via standard ELISAs. […] Prior to the addition of clonal phage. wells were incubated with blocking buffer and PSMA antigen or blocking buffer alone. Without washing or aspirating, clonal phage supernatants were then added to the wells and incubated for a short time. Wells were then washed followed by detection of bound phage using a horse radish conjugated anti-M13 antibody.
For B1, the “Anti-PSMA Fab signal in the presence of PSMA” value (from here on “Anti-PSMA Fab signal”) was 0.0738. For B2, the “Anti-PSMA Fab signal” value was 0.225. With B3 the “Anti-PSMA Fab signal” value was 0.054. In the case of B4, the “Anti-PSMA Fab signal” value is reported as 0.0592. In the case of B5, the “Anti-PSMA Fab signal” value is reported as 0.0886. For B6, the “Anti-PSMA Fab signal” value was 0.0796. For B7, the “Anti-PSMA Fab signal” value was 0.119. B8 was tested, and the “Anti-PSMA Fab signal” value was 0.0882. For B9, the “Anti-PSMA Fab signal” value was 0.0895. B10 was tested, and the “Anti-PSMA Fab signal” value was 0.0984. With B11 the “Anti-PSMA Fab signal” value was 0.0739. In the case of B12, the “Anti-PSMA Fab signal” value is reported as 0.0948. For B13, the “Anti-PSMA Fab signal” value was 0.0717. With B14 the “Anti-PSMA Fab signal” value was 0.104. With B15 the “Anti-PSMA Fab signal” value was 0.0789.

What follows are binders tested against T1, Anti-PSMA Fab (SEQ ID NOs: 19, 20) (assay: phage binding ELISA; biotinylated Fab on neutravidin plate, clonal phage detected with anti-M13 HRP).
Protocol: as §1
B1 was tested, and the “Anti-PSMA Fab (SEQ ID NOs: 19, 20) signal” value was 1.51. In the case of B2, the “Anti-PSMA Fab (SEQ ID NOs: 19, 20) signal” value is reported as 1.53. For B3, the “Anti-PSMA Fab (SEQ ID NOs: 19, 20) signal” value was 1.51. For B4, the “Anti-PSMA Fab (SEQ ID NOs: 19, 20) signal” value was 1.53. B5 was tested, and the “Anti-PSMA Fab (SEQ ID NOs: 19, 20) signal” value was 1.53. With B6 the “Anti-PSMA Fab (SEQ ID NOs: 19, 20) signal” value was 1.52. With B7 the “Anti-PSMA Fab (SEQ ID NOs: 19, 20) signal” value was 1.52. With B8 the “Anti-PSMA Fab (SEQ ID NOs: 19, 20) signal” value was 1.52. In the case of B9, the “Anti-PSMA Fab (SEQ ID NOs: 19, 20) signal” value is reported as 1.51. For B10, the “Anti-PSMA Fab (SEQ ID NOs: 19, 20) signal” value was 1.51. For B11, the “Anti-PSMA Fab (SEQ ID NOs: 19, 20) signal” value was 1.52. B12 was tested, and the “Anti-PSMA Fab (SEQ ID NOs: 19, 20) signal” value was 1.52. For B13, the “Anti-PSMA Fab (SEQ ID NOs: 19, 20) signal” value was 1.53. In the case of B14, the “Anti-PSMA Fab (SEQ ID NOs: 19, 20) signal” value is reported as 1.52. For B15, the “Anti-PSMA Fab (SEQ ID NOs: 19, 20) signal” value was 1.52.

Each binder was assayed against T2, Anti-PSMA Fab (SEQ ID NOs: 19, 20) (assay: phage binding ELISA; biotinylated PSMA Fab on neutravidin plate, clonal phage detected with anti-M13-HRP).
T2 construct: Biotinylated and captured on neutravidin coated plates in the phage ELISA; also called 006 PSMA Fab
Protocol: as §1
With B16 the “Anti-PSMA Fab (SEQ ID NOs: 19, 20) signal” value was 1.63. B17 was tested, and the “Anti-PSMA Fab (SEQ ID NOs: 19, 20) signal” value was 1.63. B18 was tested, and the “Anti-PSMA Fab (SEQ ID NOs: 19, 20) signal” value was 1.63. For B19, the “Anti-PSMA Fab (SEQ ID NOs: 19, 20) signal” value was 1.64. With B20 the “Anti-PSMA Fab (SEQ ID NOs: 19, 20) signal” value was 1.63. In the case of B21, the “Anti-PSMA Fab (SEQ ID NOs: 19, 20) signal” value is reported as 1.63. With B22 the “Anti-PSMA Fab (SEQ ID NOs: 19, 20) signal” value was 1.64. B23 was tested, and the “Anti-PSMA Fab (SEQ ID NOs: 19, 20) signal” value was 1.64. B24 was tested, and the “Anti-PSMA Fab (SEQ ID NOs: 19, 20) signal” value was 1.63. In the case of B25, the “Anti-PSMA Fab (SEQ ID NOs: 19, 20) signal” value is reported as 1.64. For B26, the “Anti-PSMA Fab (SEQ ID NOs: 19, 20) signal” value was 1.64. B27 was tested, and the “Anti-PSMA Fab (SEQ ID NOs: 19, 20) signal” value was 1.64. B28 was tested, and the “Anti-PSMA Fab (SEQ ID NOs: 19, 20) signal” value was 1.63. With B29 the “Anti-PSMA Fab (SEQ ID NOs: 19, 20) signal” value was 1.63. In the case of B30, the “Anti-PSMA Fab (SEQ ID NOs: 19, 20) signal” value is reported as 1.63.

Each binder was assayed against T2, Anti-PSMA Fab (SEQ ID NOs: 19, 20) (assay: phage binding ELISA; Fab-coated wells pre-incubated with PSMA antigen as competitor, anti-M13-HRP detection;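 further: clonal phage supernatants screened, with reference wells given blocking buffer only (no PSMA antigen) before phage were added for a brief incubation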).
Protocol: as §1
In the case of B16, the “Anti-PSMA Fab signal” value is reported as 0.0922. B17 was tested, and the “Anti-PSMA Fab signal” value was 0.0843. B18 was tested, and the “Anti-PSMA Fab signal” value was 0.0998. For B19, the “Anti-PSMA Fab signal” value was 0.0655. For B20, the “Anti-PSMA Fab signal” value was 0.0711. For B21, the “Anti-PSMA Fab signal” value was 0.071. For B22, the “Anti-PSMA Fab signal” value was 0.0713. In the case of B23, the “Anti-PSMA Fab signal” value is reported as 0.0806. In the case of B24, the “Anti-PSMA Fab signal” value is reported as 0.145. With B25 the “Anti-PSMA Fab signal” value was 0.0704. In the case of B26, the “Anti-PSMA Fab signal” value is reported as 0.0904. B27 was tested, and the “Anti-PSMA Fab signal” value was 0.0868. B28 was tested, and the “Anti-PSMA Fab signal” value was 0.0839. B29 was tested, and the “Anti-PSMA Fab signal” value was 0.0932. For B30, the “Anti-PSMA Fab signal” value was 0.0762.

Each binder was assayed against T3, Anti-PSMA Fab (SEQ ID NOs: 19, 20) (assay: phage binding ELISA; PSMA Fab on plate pre-incubated with PSMA antigen as competitor, anti-M13 HRP detection;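 further: crude clonal phage supernatants added without washing to wells preincubated with PSMA in blocking buffer, compared with wells receiving blocking buffer only, then bound phage detected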).
T3 construct: also called 006 PSMA Fab
Protocol: as §1
With B31 the “Anti-PSMA Fab signal” value was 0.0738. With B32 the “Anti-PSMA Fab signal” value was 0.111. In the case of B33, the “Anti-PSMA Fab signal” value is reported as 0.087. With B34 the “Anti-PSMA Fab signal” value was 0.0558. With B35 the “Anti-PSMA Fab signal” value was 0.0623. With B36 the “Anti-PSMA Fab signal” value was 0.0753. In the case of B37, the “Anti-PSMA Fab signal” value is reported as 0.0767. With B38 the “Anti-PSMA Fab signal” value was 0.0664. With B39 the “Anti-PSMA Fab signal” value was 0.0772. In the case of B40, the “Anti-PSMA Fab signal” value is reported as 0.0749. For B41, the “Anti-PSMA Fab signal” value was 0.0572. For B42, the “Anti-PSMA Fab signal” value was 0.084. In the case of B43, the “Anti-PSMA Fab signal” value is reported as 0.0931. For B44, the “Anti-PSMA Fab signal” value was 0.0574. With B45 the “Anti-PSMA Fab signal” value was 0.0779.

These binders were tested against T3, Anti-PSMA Fab (SEQ ID NOs: 19, 20) (assay: phage binding ELISA; biotinylated PSMA Fab on neutravidin plate, clonal phage supernatant, anti-M13 HRP detection;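 further: wells were preincubated with blocking buffer either containing PSMA antigen or without it before crude phage supernatant was added, briefly incubated, then washed prior to detection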).
Protocol: as §1
In the case of B31, the “Anti-PSMA Fab (SEQ ID NOs: 19, 20) signal” value is reported as 1.54. For B32, the “Anti-PSMA Fab (SEQ ID NOs: 19, 20) signal” value was 1.54. In the case of B33, the “Anti-PSMA Fab (SEQ ID NOs: 19, 20) signal” value is reported as 1.54. With B34 the “Anti-PSMA Fab (SEQ ID NOs: 19, 20) signal” value was 1.53. In the case of B35, the “Anti-PSMA Fab (SEQ ID NOs: 19, 20) signal” value is reported as 1.54. For B36, the “Anti-PSMA Fab (SEQ ID NOs: 19, 20) signal” value was 1.54. With B37 the “Anti-PSMA Fab (SEQ ID NOs: 19, 20) signal” value was 1.54. With B38 the “Anti-PSMA Fab (SEQ ID NOs: 19, 20) signal” value was 1.54. With B39 the “Anti-PSMA Fab (SEQ ID NOs: 19, 20) signal” value was 1.54. In the case of B40, the “Anti-PSMA Fab (SEQ ID NOs: 19, 20) signal” value is reported as 1.54. With B41 the “Anti-PSMA Fab (SEQ ID NOs: 19, 20) signal” value was 1.54. With B42 the “Anti-PSMA Fab (SEQ ID NOs: 19, 20) signal” value was 1.54. B43 was tested, and the “Anti-PSMA Fab (SEQ ID NOs: 19, 20) signal” value was 1.54. B44 was tested, and the “Anti-PSMA Fab (SEQ ID NOs: 19, 20) signal” value was 1.55. In the case of B45, the “Anti-PSMA Fab (SEQ ID NOs: 19, 20) signal” value is reported as 1.55.
